Measured values reported in patent publication US20070265201A1, “INHIBITORS OF IN[…] TRA[…] FROM HCMV PROTEIN IE2” (priority 2005, published 2007).

Target: Spi-1 transcription factor, expressed in cells
Test: cell-based or functional assay

“IE2 291-364 expressed in cells from pCDNA 3.1/V5-His IE2 291-364 (peptide)” showed an inhibition of IL-1β promoter luciferase reporter in LPS-treated RAW 264.7 cells of 50% and a maximum inhibition of the 3.8 kbp complete IL1B regulatory region luciferase reporter in LPS-treated RAW264.7 cells of 50 to 75%.
